Results: the supplement of paper PMC10065799, “High-throughput profiling of sequence recognition by tyrosine kinases and SH2 domains using bacterial peptide display” (eLife, 2023)

What follows are sequences tested against FGFR3 (UniProt P22607) (assay: phosphorylation enrichment, bacterial display (enrichment ratio); higher = better substrate or ligand; peptides without Tyr show the background).
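Note: 11-residue human phosphosite peptides and single-mutation variants displayed on the E. coli surface, counted by deep sequencing, each peptide's frequency after selection divided by its frequency in the unselected input library; frequency after pTyr selection over input frequency; kinase dosed for 20-30% of maximal phosphorylation in three min.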

FGFR3, sequence (P22607 whole entry, looked up): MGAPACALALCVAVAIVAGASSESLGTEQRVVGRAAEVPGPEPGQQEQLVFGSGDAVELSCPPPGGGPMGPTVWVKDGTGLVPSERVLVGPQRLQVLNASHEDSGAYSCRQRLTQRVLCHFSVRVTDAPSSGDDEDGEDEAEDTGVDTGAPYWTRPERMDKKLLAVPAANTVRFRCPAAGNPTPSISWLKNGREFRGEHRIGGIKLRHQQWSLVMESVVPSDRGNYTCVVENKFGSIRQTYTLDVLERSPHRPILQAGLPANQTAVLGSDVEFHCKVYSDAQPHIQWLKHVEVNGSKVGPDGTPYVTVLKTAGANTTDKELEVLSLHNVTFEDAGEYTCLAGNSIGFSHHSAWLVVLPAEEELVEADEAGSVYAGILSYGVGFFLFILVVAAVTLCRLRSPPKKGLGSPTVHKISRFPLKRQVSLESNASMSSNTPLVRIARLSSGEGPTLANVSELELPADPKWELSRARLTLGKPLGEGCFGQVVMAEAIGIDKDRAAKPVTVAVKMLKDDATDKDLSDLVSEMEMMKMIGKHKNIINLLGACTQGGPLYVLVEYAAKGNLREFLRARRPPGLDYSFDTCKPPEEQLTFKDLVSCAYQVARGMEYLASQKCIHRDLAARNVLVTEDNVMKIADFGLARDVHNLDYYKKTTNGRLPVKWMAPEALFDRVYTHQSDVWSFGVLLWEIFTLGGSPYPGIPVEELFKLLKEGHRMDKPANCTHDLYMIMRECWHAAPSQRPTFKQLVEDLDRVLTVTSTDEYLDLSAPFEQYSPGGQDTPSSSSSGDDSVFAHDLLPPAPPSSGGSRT

First: TVDASYCGGRG [ANTXR2_Y380_Y381C]
Second: RRNSPYSQTMK [TET2_Y819]
The phosphorylation enrichment of the first is lower: 0.437 for the first, 0.953 for the second.

First: EAEPFYRSLRD [NPHS1_Y1139_YF]
Second: GIVEDYRPRFY [ACVRL1_Y421_P424R]
The phosphorylation enrichment of the first is higher: 0.707 for the first, 0.521 for the second.

Going from YIATQYSLCPR [LBR_Y166_R169C] to KDFTKYVAFIE [KDM4B_Y31_N29T_YF], the phosphorylation enrichment falls from 1.19 to 0.623.

Going from REHTVYGEPRK [MAGEA4_Y240] to GQDLFYEDEDL [PACS1_Y303], the phosphorylation enrichment rises from 0.684 to 1.24.

First: DFFDLYGGKKF [PTPN11_Y66_E69K_YF]
Second: STLEVYSCHPP [IL21R_Y317]
The phosphorylation enrichment of the first is lower: 0.616 for the first, 1.04 for the second.

Compared with MHDKEYYSVHN [MET_Y1234_Y1230H], RQRTAYFSLDT [CDH1_Y68] is lower in phosphorylation enrichment: 2.08 for the first, 0.504 for the second.

Going from AVEDQYYRVDC [FHL1_Y207_C209R] to GVTLLCYGRYN [ADGRD1_Y85_Y85C], the phosphorylation enrichment falls from 6.95 to 0.908.

Going from LRNIDYHRLDG [ATRX_Y2083_Y2084H] to LTRDIYKNDYY [ROS1_Y2110_A2106T], the phosphorylation enrichment rises from 0.617 to 3.61.

First: CHRQLYHKCTH [F12_Y58_Y53C]
Second: VRLTEYPCAGL
The phosphorylation enrichment of the first is higher: 0.576 for the first, 0.523 for the second.

Compared with GPKSTYISSAA [GOLGA5_Y62], VAMELYVFRGV [GAN_Y471_G474R] is higher in phosphorylation enrichment: 0.51 for the first, 0.807 for the second.

Compared with GESLTYVSTTF [C1orf162_Y120_A121V], RIVTTYIRERE [DNM2_Y463] is higher in phosphorylation enrichment: 0.62 for the first, 0.682 for the second.

Going from RNVYYYSYLLK [PTEN_Y178_Y174N] to VLTSTYRGGGG [HBA1_Y141_K140T], the phosphorylation enrichment falls from 8.38 to 0.483.

Compared with KIFPEYLSNWT [AIFM1_Y347_L344F], SEASYYKSLNL [NGEF_Y289] is higher in phosphorylation enrichment: 0.721 for the first, 0.979 for the second.

Going from QGCSIYKDFFR [PLA2G2D_Y82_YF] to GDGRFYMMEAI [PGM1_Y66_K68M], the phosphorylation enrichment falls from 1.28 to 0.731.

Going from HMRLRYLAAEE [CEP120_Y884_Q879H] to TIMTNYNPNFC [ALK_Y1092_D1091N_YF], the phosphorylation enrichment falls from 0.939 to 0.694.

First: DFTSRYLSASD [PKHD1_Y828_N830S]
Second: VQVAFYTMMMN [SPATA17_Y84_YF]
The phosphorylation enrichment of the first is lower: 0.605 for the first, 1.99 for the second.

DKANRYFSPNV [PTEN_Y336_F341V] showed a phosphorylation enrichment of 0.504.

The sequences below were run on Fer (mouse) in the same assay as above.

First: TVDASYCGGRG [ANTXR2_Y380_Y381C]
Second: RRNSPYSQTMK [TET2_Y819]
The phosphorylation enrichment of the first is lower: 0.402 for the first, 0.63 for the second.

Compared with EAEPFYRSLRD [NPHS1_Y1139_YF], GIVEDYRPRFY [ACVRL1_Y421_P424R] is higher in phosphorylation enrichment: 0.451 for the first, 0.519 for the second.

First: YIATQYSLCPR [LBR_Y166_R169C]
Second: KDFTKYVAFIE [KDM4B_Y31_N29T_YF]
The phosphorylation enrichment of the first is higher: 0.606 for the first, 0.422 for the second.

First: REHTVYGEPRK [MAGEA4_Y240]
Second: GQDLFYEDEDL [PACS1_Y303]
The phosphorylation enrichment of the first is lower: 0.52 for the first, 1.79 for the second.

Going from DFFDLYGGKKF [PTPN11_Y66_E69K_YF] to STLEVYSCHPP [IL21R_Y317], the phosphorylation enrichment rises from 0.499 to 0.904.

First: MHDKEYYSVHN [MET_Y1234_Y1230H]
Second: RQRTAYFSLDT [CDH1_Y68]
The phosphorylation enrichment of the first is lower: 0.411 for the first, 0.414 for the second.

Going from AVEDQYYRVDC [FHL1_Y207_C209R] to GVTLLCYGRYN [ADGRD1_Y85_Y85C], the phosphorylation enrichment falls from 0.718 to 0.563.

Going from LRNIDYHRLDG [ATRX_Y2083_Y2084H] to LTRDIYKNDYY [ROS1_Y2110_A2106T], the phosphorylation enrichment rises from 0.571 to 1.

Compared with CHRQLYHKCTH [F12_Y58_Y53C], VRLTEYPCAGL is lower in phosphorylation enrichment: 0.491 for the first, 0.381 for the second.

First: GPKSTYISSAA [GOLGA5_Y62]
Second: VAMELYVFRGV [GAN_Y471_G474R]
The phosphorylation enrichment of the first is lower: 0.403 for the first, 0.501 for the second.

First: GESLTYVSTTF [C1orf162_Y120_A121V]
Second: RIVTTYIRERE [DNM2_Y463]
The phosphorylation enrichment of the first is lower: 0.512 for the first, 0.649 for the second.

Going from RNVYYYSYLLK [PTEN_Y178_Y174N] to VLTSTYRGGGG [HBA1_Y141_K140T], the phosphorylation enrichment falls from 1.59 to 0.385.

First: KIFPEYLSNWT [AIFM1_Y347_L344F]
Second: SEASYYKSLNL [NGEF_Y289]
The phosphorylation enrichment of the first is higher: 0.502 for the first, 0.497 for the second.

Going from QGCSIYKDFFR [PLA2G2D_Y82_YF] to GDGRFYMMEAI [PGM1_Y66_K68M], the phosphorylation enrichment falls from 0.774 to 0.539.

Going from HMRLRYLAAEE [CEP120_Y884_Q879H] to TIMTNYNPNFC [ALK_Y1092_D1091N_YF], the phosphorylation enrichment falls from 0.75 to 0.512.

First: DFTSRYLSASD [PKHD1_Y828_N830S]
Second: VQVAFYTMMMN [SPATA17_Y84_YF]
The phosphorylation enrichment of the first is lower: 0.42 for the first, 1.81 for the second.

For DKANRYFSPNV [PTEN_Y336_F341V], the phosphorylation enrichment was 0.363.

These sequences were tested against Fes (UniProt P07332) in the same assay as above.
Fes, sequence (P07332 whole entry, looked up): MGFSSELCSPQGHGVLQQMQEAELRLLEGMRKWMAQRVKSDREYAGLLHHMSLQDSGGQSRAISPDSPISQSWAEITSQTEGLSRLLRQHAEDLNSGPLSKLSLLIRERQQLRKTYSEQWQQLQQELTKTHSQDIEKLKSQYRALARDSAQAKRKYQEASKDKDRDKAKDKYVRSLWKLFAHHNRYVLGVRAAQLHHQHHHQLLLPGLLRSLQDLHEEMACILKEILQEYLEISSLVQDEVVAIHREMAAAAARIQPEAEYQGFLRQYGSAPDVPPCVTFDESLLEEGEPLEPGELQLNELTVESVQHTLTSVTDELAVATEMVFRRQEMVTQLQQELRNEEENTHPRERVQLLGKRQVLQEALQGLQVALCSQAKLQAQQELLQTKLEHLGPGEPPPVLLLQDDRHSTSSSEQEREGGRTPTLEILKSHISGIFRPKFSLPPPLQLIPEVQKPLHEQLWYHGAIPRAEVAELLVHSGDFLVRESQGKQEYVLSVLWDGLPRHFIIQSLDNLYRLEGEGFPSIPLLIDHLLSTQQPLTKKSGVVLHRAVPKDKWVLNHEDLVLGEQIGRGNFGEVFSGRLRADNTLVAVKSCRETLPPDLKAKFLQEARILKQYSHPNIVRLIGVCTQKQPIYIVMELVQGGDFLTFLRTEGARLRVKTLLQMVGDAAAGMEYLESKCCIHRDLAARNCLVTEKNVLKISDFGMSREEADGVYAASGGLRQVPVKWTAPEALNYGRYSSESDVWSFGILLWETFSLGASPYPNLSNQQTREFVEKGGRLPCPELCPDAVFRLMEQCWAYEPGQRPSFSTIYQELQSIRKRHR

Going from TVDASYCGGRG [ANTXR2_Y380_Y381C] to RRNSPYSQTMK [TET2_Y819], the phosphorylation enrichment rises from 0.695 to 1.14.

First: EAEPFYRSLRD [NPHS1_Y1139_YF]
Second: GIVEDYRPRFY [ACVRL1_Y421_P424R]
The phosphorylation enrichment of the first is higher: 1.18 for the first, 0.952 for the second.

First: YIATQYSLCPR [LBR_Y166_R169C]
Second: KDFTKYVAFIE [KDM4B_Y31_N29T_YF]
The phosphorylation enrichment of the first is lower: 0.907 for the first, 1.06 for the second.

Compared with REHTVYGEPRK [MAGEA4_Y240], GQDLFYEDEDL [PACS1_Y303] is higher in phosphorylation enrichment: 0.851 for the first, 1.39 for the second.

First: DFFDLYGGKKF [PTPN11_Y66_E69K_YF]
Second: STLEVYSCHPP [IL21R_Y317]
The phosphorylation enrichment of the first is lower: 1.02 for the first, 1.56 for the second.

First: MHDKEYYSVHN [MET_Y1234_Y1230H]
Second: RQRTAYFSLDT [CDH1_Y68]
The phosphorylation enrichment of the first is lower: 0.748 for the first, 0.767 for the second.

Compared with AVEDQYYRVDC [FHL1_Y207_C209R], GVTLLCYGRYN [ADGRD1_Y85_Y85C] is higher in phosphorylation enrichment: 1.46 for the first, 1.55 for the second.

Compared with LRNIDYHRLDG [ATRX_Y2083_Y2084H], LTRDIYKNDYY [ROS1_Y2110_A2106T] is higher in phosphorylation enrichment: 0.606 for the first, 1.88 for the second.

Going from CHRQLYHKCTH [F12_Y58_Y53C] to VRLTEYPCAGL, the phosphorylation enrichment falls from 0.796 to 0.781.

Going from GPKSTYISSAA [GOLGA5_Y62] to VAMELYVFRGV [GAN_Y471_G474R], the phosphorylation enrichment rises from 0.7 to 1.29.

First: GESLTYVSTTF [C1orf162_Y120_A121V]
Second: RIVTTYIRERE [DNM2_Y463]
The phosphorylation enrichment of the first is higher: 1.07 for the first, 1.06 for the second.

Going from RNVYYYSYLLK [PTEN_Y178_Y174N] to VLTSTYRGGGG [HBA1_Y141_K140T], the phosphorylation enrichment falls from 2.56 to 0.628.

Going from KIFPEYLSNWT [AIFM1_Y347_L344F] to SEASYYKSLNL [NGEF_Y289], the phosphorylation enrichment falls from 0.916 to 0.793.

First: QGCSIYKDFFR [PLA2G2D_Y82_YF]
Second: GDGRFYMMEAI [PGM1_Y66_K68M]
The phosphorylation enrichment of the first is higher: 1.74 for the first, 1.26 for the second.

Going from HMRLRYLAAEE [CEP120_Y884_Q879H] to TIMTNYNPNFC [ALK_Y1092_D1091N_YF], the phosphorylation enrichment falls from 1.89 to 1.06.

Going from DFTSRYLSASD [PKHD1_Y828_N830S] to VQVAFYTMMMN [SPATA17_Y84_YF], the phosphorylation enrichment rises from 0.846 to 1.51.

DKANRYFSPNV [PTEN_Y336_F341V] was tested, and the phosphorylation enrichment was 0.544.

The sequences below were run against Fyn (UniProt P06241) in the same assay as above.
Fyn, sequence (P06241 whole entry, looked up): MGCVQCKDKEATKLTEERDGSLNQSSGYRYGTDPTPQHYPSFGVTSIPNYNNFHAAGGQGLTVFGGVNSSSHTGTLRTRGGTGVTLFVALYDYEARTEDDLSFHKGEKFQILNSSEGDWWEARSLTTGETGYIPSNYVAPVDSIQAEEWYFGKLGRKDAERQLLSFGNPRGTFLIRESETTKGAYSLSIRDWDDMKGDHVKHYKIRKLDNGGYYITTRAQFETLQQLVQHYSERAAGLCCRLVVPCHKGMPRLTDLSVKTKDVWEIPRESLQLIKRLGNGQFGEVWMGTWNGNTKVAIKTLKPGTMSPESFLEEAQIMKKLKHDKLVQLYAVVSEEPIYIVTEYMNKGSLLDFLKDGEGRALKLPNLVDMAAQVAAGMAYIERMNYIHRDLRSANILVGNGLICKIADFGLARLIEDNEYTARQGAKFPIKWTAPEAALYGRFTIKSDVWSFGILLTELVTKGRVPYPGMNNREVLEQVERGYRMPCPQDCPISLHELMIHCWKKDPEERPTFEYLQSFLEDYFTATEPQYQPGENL

First: TVDASYCGGRG [ANTXR2_Y380_Y381C]
Second: RRNSPYSQTMK [TET2_Y819]
The phosphorylation enrichment of the first is lower: 0.383 for the first, 0.731 for the second.

Going from EAEPFYRSLRD [NPHS1_Y1139_YF] to GIVEDYRPRFY [ACVRL1_Y421_P424R], the phosphorylation enrichment rises from 0.433 to 0.447.

First: YIATQYSLCPR [LBR_Y166_R169C]
Second: KDFTKYVAFIE [KDM4B_Y31_N29T_YF]
The phosphorylation enrichment of the first is higher: 0.67 for the first, 0.521 for the second.

Compared with REHTVYGEPRK [MAGEA4_Y240], GQDLFYEDEDL [PACS1_Y303] is lower in phosphorylation enrichment: 0.869 for the first, 0.688 for the second.

First: DFFDLYGGKKF [PTPN11_Y66_E69K_YF]
Second: STLEVYSCHPP [IL21R_Y317]
The phosphorylation enrichment of the first is higher: 3.04 for the first, 1.25 for the second.

First: MHDKEYYSVHN [MET_Y1234_Y1230H]
Second: RQRTAYFSLDT [CDH1_Y68]
The phosphorylation enrichment of the first is higher: 0.488 for the first, 0.38 for the second.

First: AVEDQYYRVDC [FHL1_Y207_C209R]
Second: GVTLLCYGRYN [ADGRD1_Y85_Y85C]
The phosphorylation enrichment of the first is higher: 0.982 for the first, 0.708 for the second.

Going from LRNIDYHRLDG [ATRX_Y2083_Y2084H] to LTRDIYKNDYY [ROS1_Y2110_A2106T], the phosphorylation enrichment rises from 0.342 to 1.82.

Compared with CHRQLYHKCTH [F12_Y58_Y53C], VRLTEYPCAGL is lower in phosphorylation enrichment: 0.402 for the first, 0.358 for the second.

Compared with GPKSTYISSAA [GOLGA5_Y62], VAMELYVFRGV [GAN_Y471_G474R] is higher in phosphorylation enrichment: 0.467 for the first, 0.503 for the second.

First: GESLTYVSTTF [C1orf162_Y120_A121V]
Second: RIVTTYIRERE [DNM2_Y463]
The phosphorylation enrichment of the first is lower: 0.569 for the first, 0.811 for the second.

Going from RNVYYYSYLLK [PTEN_Y178_Y174N] to VLTSTYRGGGG [HBA1_Y141_K140T], the phosphorylation enrichment falls from 3.94 to 0.38.

Going from KIFPEYLSNWT [AIFM1_Y347_L344F] to SEASYYKSLNL [NGEF_Y289], the phosphorylation enrichment rises from 0.43 to 0.539.

Going from QGCSIYKDFFR [PLA2G2D_Y82_YF] to GDGRFYMMEAI [PGM1_Y66_K68M], the phosphorylation enrichment falls from 3.19 to 0.51.

Compared with HMRLRYLAAEE [CEP120_Y884_Q879H], TIMTNYNPNFC [ALK_Y1092_D1091N_YF] is lower in phosphorylation enrichment: 0.722 for the first, 0.545 for the second.

First: DFTSRYLSASD [PKHD1_Y828_N830S]
Second: VQVAFYTMMMN [SPATA17_Y84_YF]
The phosphorylation enrichment of the first is lower: 0.466 for the first, 0.652 for the second.

Work on DKANRYFSPNV [PTEN_Y336_F341V] yielded a phosphorylation enrichment of 0.378.
